# Test results from the supplement of paper PMC7125110.
# ± gives the standard error. For part of these data: Fewer inactive variants are shown than the library holds.
# B1: glmS ribozyme (parent)
# chain: AUAAAAGCGCCAGAACUACAGAAAUGUAGUUGACGAGGAGGAGGUUUAUCGAAUUUUCGGCGGAUGCCUCCAAA
# Legend:
# Details in all cases: with glucosamine-6-phosphate
# glucosamine-6-phosphate [1] = variants of: B1; experiment: kcat; higher = faster cleavage; RNA array
# Procedure, shortened: (§1)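 Tiles bearing barcoded ribozyme variants, transcribed in situ by E. coli RNA polymerase on sequenced MiSeq chips, were imaged over ~14 h at 37 °C using a hybridised Cy3 probe. Glucosamine-6-phosphate was supplied at 40 μM to 10 mM in HEPES/KCl/Mg(OAc)2 buffer. kobs came from one- or two-exponential decay fits to normalised per-tile medians, and weighted Michaelis–Menten fits then provided kcat and KM.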
# glucosamine-6-phosphate [2] = variants of: B1; experiment: KM; higher = weaker cofactor use; RNA array
# Procedure, shortened: as §1
# glucosamine-6-phosphate [3] = variants of: B1; experiment: self-cleavage kobs at 40 uM GlcN6P; higher = faster cleavage; RNA array
# Procedure, shortened: as §1
# glucosamine-6-phosphate [4] = variants of: B1; experiment: self-cleavage kobs at 160 uM GlcN6P; higher = faster cleavage; RNA array
# Procedure, shortened: as §1
# glucosamine-6-phosphate [5] = variants of: B1; experiment: self-cleavage kobs at 640 uM GlcN6P; higher = faster cleavage; RNA array
# Procedure, shortened: as §1
# glucosamine-6-phosphate [6] = variants of: B1; experiment: self-cleavage kobs at 2500 uM GlcN6P; higher = faster cleavage; RNA array
# Procedure, shortened: as §1
# glucosamine-6-phosphate [7] = variants of: B1; experiment: self-cleavage kobs at 10000 uM GlcN6P; higher = faster cleavage; RNA array
# Procedure, shortened: as §1
Variant,kcat (glucosamine-6-phosphate [1]) [s⁻¹],KM (glucosamine-6-phosphate [2]) [µM],self-cleavage kobs at 40 uM GlcN6P (glucosamine-6-phosphate [3]) [s⁻¹],self-cleavage kobs at 160 uM GlcN6P (glucosamine-6-phosphate [4]) [s⁻¹],self-cleavage kobs at 640 uM GlcN6P (glucosamine-6-phosphate [5]) [s⁻¹],self-cleavage kobs at 2500 uM GlcN6P (glucosamine-6-phosphate [6]) [s⁻¹],self-cleavage kobs at 10000 uM GlcN6P (glucosamine-6-phosphate [7]) [s⁻¹]
AUAAAAGCGCCAGAACUACAGAAAUGUAGUUGACGAGGAGGAGGUUUAUCGAAGUUUCGGCGGAAGCCUCCAAA,0.00375 ± 0.00091,2250 ± 730,9.07e-05 ± 1.5e-05,0.000213 ± 3.8e-05,0.0008 ± 0.00014,0.00199 ± 0.00034,0.00315 ± 0.00065
AUAAAAGCGCCAGAACUACAGAAAUGUAGUUGACGAGGAGGAGGUUGAUCGAAUUGUCGGCGGAUGCCUCCAAA,0.00559 ± 0.00071,1560 ± 280,0.000148 ± 2.2e-05,0.000523 ± 0.00015,0.00151 ± 0.00034,0.00299 ± 0.00058,0.00556 ± 0.00097
AUAAAAGCGCCUGAACUACAGAAAUGUAGUUGACGAGGAGGAGGUUUAUCGAAUUUUGGGCGGAUGCCUCCAAA,0.0011 ± 0.00023,6470 ± 2000,,2.07e-05 ± 6e-06,0.000109 ± 1.2e-05,0.000287 ± 3e-05,0.000677 ± 6.4e-05
AUAAAAGCGCCUGAACUACAGAAAUGUAGUUGACGAGGAGGAUGUUUAUCGAAUUUUCGGCGGAUGCCUCCAAA,0.000148 ± 3e-05,,,,2.86e-05 ± 1.1e-05,0.000134 ± 2.2e-05,0.00012 ± 1.2e-05
AUAAAAGCGCCAGAACUACAGAAAUGUAGUUGACGAGGAAGAGGCUUAUCGAAUUUUCGGCGGAUGCCUUCAAA,0.000583 ± 6.9e-05,2900 ± 550,,,0.000105 ± 2.7e-05,0.000288 ± 8e-05,0.000432 ± 0.00015
AUAAAAGCGCCAGAACUACAGAAAUGUAGUUGACGAGGAGGAGGUUCAUCGAAUUUUCGGCGGAUGCCUUCAAA,0.00786 ± 0.0023,2070 ± 790,0.000179 ± 2.6e-05,0.000483 ± 0.00014,0.00151 ± 0.00028,0.00519 ± 0.00095,0.00635 ± 0.0016
